According to the nanobody polyreactivity screen of Harvey et al. (2022):

Assay: yeast display, Sf9 membrane polyspecificity reagent, FACS + sequencing; frameworks hold sequencing errors
How it was run: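 Genes from sorted yeast were amplified by colony PCR, read by MiSeq 2 × 250 sequencing and filtered on CDR length. These cells carried a synthetic nanobody library in Saccharomyces cerevisiae BJ5465 and were sorted by FACS into low and high (top ~1%) gates on anti-HA and streptavidin fluorescence. Polyreactivity is labelled according to the gate of origin.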

Row | Sequence | polyreactivity (PSR sort gate)
1 | QVQLVESGGGLVQAGGSLRLSCAASGFTFERYAMGWYRPAPGKDRELVAAITGSGGSTYYADSVKGRFTIARDNATNTVYLQMNSLKPEDTAFYYCARDSSLFRLRDYWGQGTQVTVSS | low polyreactivity
2 | QVQLVESGGGLVQAGGSLRLSCAASGFTFERYTMGWYRQAPGKEREMVATISRRSGRTSYADSVKGRFTISRDYAKNTVYLQMNRLQPEDTAVYYCAVDDAYPDRYDYWGQGTQVTVSS | high polyreactivity
3 | QVQLVESGGGLVQAGGSLRLSCAASGFTFETYVMGWYRQAPGKERELVAAISRRGGSTYYADSVKGRFTISRDNAKNTVYLQMNSLKPEDTAVYYCGKDGGWSRLHYNYWGQGTQVTVSS | high polyreactivity
4 | QVQLVESGGGLVQAGGSLRLSCAASGFTFEWNTMGWYRPAPGKERELVARINWSSGRTYYADSVKGRFTISRDNAKNTVYLQMNSLKPEDTAVYYCAADTYDWRTGYKDDYWGQGTQVTVSS | high polyreactivity
5 | QVQLVESGGGLVQAGGSLRLSCAASGFTFEYNDMGWYRQAPGIERELVDSISYDSDSTYYADSVKGRFTISRDNAKNTVYLQMNRLKPEDTAVYYCNAGSSYHEYGYWGQGTQVTVSS | high polyreactivity
6 | QVQLVESGGGLVQAGGSLRLSCAASGFTFEYNDMGWYRQAPGKERELVASISYDSDSTYYAVSVKGRFTISRDNAKNTVYLQMNSLKPEDTAVYYCNAGSSYHEYGYWGQGTQVTVSS | high polyreactivity
7 | QVQLVESGGGLVQAGGSLRLSCAASGFTFEYYAMGWYRQAPGKERELVAVITWNGGSTYYADSVKGRFTISRDNAKNTVYLQMNSLKPEDTAVYYCNVVPYLYNGGSHRYNYWGQGTQVTVSS | high polyreactivity
8 | QVQLVESGGGLVQAGGSLRLSCAASGFTFFDNAMGWYRQAPGKERELVAAITWSDGSTYYADSVKGRFTISRDNAKNTVYLQMNSLKAEDTAVYYCAVGFISYSYSNYYDVWYEYYYWGQGTQVTVSS | low polyreactivity
9 | QVQLVESGGGLVQAGGSLRLSCAASGFTFFDYVMGWYRQAPGKERELVAAISSGGSTYYADSVKGRFTISRDNAKNTVYLQMNSLKPEDTAVYYCATDNGYPDDATDGYYSLYDYWGQGTQVTVSS | low polyreactivity
10 | QVQLVESGGGLVQAGGSLRLSCAASGFTFFEDNAMGWYRQAPGKERELVAAITSGGSTNYADSVKGRFTISRDNAKNTVYLQMISLKPEDTAVYYCAKDRVPLKTRFYYFPWGYDYWGQGTQVTVSS | low polyreactivity
11 | QVQLVESGGGLVQAGGSLRLSCAASGFTFFGDYAMGWYRQAPGKERELVAAIDWSGGTTYYADSVKGRFTISRDNAKNTVYLQMNSLKPEDTAVYYCAKDYYSDGIYYEYWGQGTQVTVSS | high polyreactivity
12 | QVQLVESGGGLVQAGGSLRLSCAASGFTFFHYAMGWYRQAPGKERELVAAINTRGSRTYYADSVKGRFTISRDNAKNTVYLQMNSLKPEDTAVYYCAADSVQVYAWQYYYWGQGTQVTVSS | high polyreactivity
13 | QVQLVESGGGLVQAGGSLRLSCAASGFTFFHYDMGWYRQAPGKERELVAAINTRGSRTYYADSVKGRFTISRDNAKNTVYLQMNSLKPEDTAGYYSAADSVQVYAGQYYYWGQGTQVTVSS | high polyreactivity
14 | QVQLVESGGGLVQAGGSLRLSCAASGFTFFSNAMGWYRQAPGKERELVAAITSSGGSTYADSVKGRFTISRDNAKNTVYLQMNSLKPEDTAVYYCAADALAPPGGFKEYDYWGQGTQVTVSS | low polyreactivity
15 | QVQLVESGGGLVQAGGSLRLSCAASGFTFFTYTMGWYRQAPGKERELVAAISRDGARTNYADSVKGRFTISRDNAKNTVYLQMNSLKPEDTAVYYCAAPTSHLYTEKYDYWGQGTQVTVSS | high polyreactivity
16 | QVQLVESGGGLVQAGGSLRLSCAASGFTFFVYAMGWYRQAPGKERELVATINWSGASTYYADSVKGRFTISRDNAKNTVYLQMKSLKPEDTAVYYCAKDGHYPLVYLAFDYWGQGTQVTVSS | low polyreactivity
17 | QVQLVESGGGLVQAGGSLRLSCAASGFTFFVYAMGWYRQAPGKERELVAVITSGGTTNYADSVKGRFTISRDNAKNTVYLQMNSLKPEDTAVYYCNARGEKRGYYYWGQGTQVTVSS | high polyreactivity
18 | QVQLVESGGGLVQAGGSLRLSCAASGFTFGAYAKGWSRQAPGKEWELVASISWSGTSTYYADSVKGRFTISRDNAKNTVYLQMNSLKPEDTAVYYCAAGYRSTRYDYWGQGTQVTVSS | high polyreactivity
19 | QVQLVESGGGLVQAGGSLRLSCAASGFTFGDNAMGWYRQAPWKERELVADIDSDGSTYYADSVKGRFTISRDNAKNTFYLEMNSLKPEDNAVYYCAKDQYYSLGPYSFGFDYWGQGTQVNVSS | low polyreactivity
20 | QVQLVESGGGLVQAGGSLRLSCAASGFTFGDYAMGWYRQAPGKERELVAAISRSGSNTYYADSVKGRFTISRDNAKNTVYLQMNSQKPEDTAVYYCNADYDPEDMDYWGQGTQVTVSS | low polyreactivity
21 | QVQLVESGGGLVQAGGSLRLSCAASGFTFGDYAMGWYRQAPRKERELVAAISKRGGRTFYADSVKGRFTISRDNAKNTVYLQMNSLKPEDTAVYYCAKAGSFDYDYWGQGTQVTVSS | high polyreactivity
22 | QVQLVESGGGLVQAGGSLRLSCAASGFTFGEYAMGWYRQAPGKEREFVAAISATGGSTYYADSVKGRFTISRDNAKNTVYLQMNSLKPEDTAVYYCAARDAYYDGYDYWGQGTQVTVSS | low polyreactivity

Row | Sequence | polyreactivity (PSR sort gate)
23 | QVQLVESGGGLVQAGGSLRLSCAASGFTFGFNAMGWYRQAPGKEREFVASITYRGGSTYYADSVKGRFTISRDNAKNTVYLQMNSLKPEDTAVYYCAAASPWRRYISDYWGQGTQVTVSS | high polyreactivity
24 | QVQLVESGGGLVQAGGSLRLSCAASGFTFGFYAMGWYIQAPGNERELVASITTRGGSTRYADSVKGRFTISRDNAKNTVYLQMNSLKPEDTAVYYCAAQYSYVRYLKRGYGYWGQGTQVTVSS | high polyreactivity
25 | QVQLVESGGGLVQAGGSLRLSCAASGFTFGGYAMGWYRQAPGKERELVAAISGRGGRTYYADSVKGRFTISRDNAKNTVYLQMNSLKPEDTAVYYCAAPTNHWTLLSGDYWGQGTQVTVSS | high polyreactivity
26 | QVQLVESGGGLVQAGGSLRLSCAASGFTFGGYAMGWYRQAPGKERELVAAISRSGGSTYYADSVKGRFIISRDNAKNTVYLQMNSLKPEDTAVYYCAAKTVSRARLYDYWGQGTQVTVSS | high polyreactivity
27 | QVQLVESGGGLVQAGGSLRLSCAASGFTFGINAMGWYRQAPGKERELVAAINQSGDRTYYADSVKGRFTISRDNAKNTVYLQMNSLKPEDTAVYYCAGPSYWGGGRYRYGYWGQGTQVTVSS | high polyreactivity
28 | QVQLVESGGGLVQAGGSLRLSCAASGFTFGNNGMGWYRQAPGKERELVATISWSGGSTYADSVKGRFTISRDNAKNTVYLQMNSLKPEDTAVYYCAAPYLSLYWYDYWGQGTQVTVSS | low polyreactivity
29 | QVQLVESGGGLVQAGGSLRLSCAASGFTFGPYAMGWYRQAPGKERELVAAIRSGGSTNYADSVKGRFTISRDNAKNTVYLQMNSLKPEDTAVYYCAAGYRRGWVTMGYWGQGTQVTVSS | high polyreactivity
30 | QVQLVESGGGLVQAGGSLRLSCAASGFTFGRYAMGWYRQAPGKERELVAAISSSGSSTYYADSVKGRFTLSRDNAKNTVYLQMNSLKPEDTAVYYCNTRCRKHPSSYPYDYWGQGTQVTVSS | high polyreactivity
31 | QVQLVESGGGLVQAGGSLRLSCAASGFTFGRYAMGWYRQAPGKERELVATITRSGVNTYYADSVKGRFTISRDNAKNTVYLQMNSLKPEDTAVYYCAAVEIWYWGFTQYEYWGQGTQVTVSS | high polyreactivity
32 | QVQLVESGGGLVQAGGSLRLSCAASGFTFGSNDMGWYRQAPVKERELVAAIDGSGDTYYADSVKGRFTISRDNAKNTVYLQMNSLKPEDTAVYYCAAGYTYYSLYGYWGQGTQVTVSS | low polyreactivity
33 | QVQLVESGGGLVQAGGSLRLSCAASGFTFGSYAMGWYIQAPGKERELVARISSDGSTNYADSVKGRFTISRDNAKNTVYLQMNSLKPEDTAVYYSARDRKRQADDIGEFDYWGQGTQVTVSS | low polyreactivity
34 | QVQLVESGGGLVQAGGSLRLSCAASGFTFGSYAMGWYRQAPGKERELVAAISWGGGSTYYADSVKGRFTISRDNAKNTVYLQMNSLKPEDTAVYYCNADAISSFGYWGQGTQVTVSS | high polyreactivity
35 | QVQLVESGGGLVQAGGSLRLSCAASGFTFGVYAMGWYRPAPGKERELVAAITSGGGRTYADSVKGRFTISRDNAKNTVYLQMNSLKTEDTADYYCAAEGVPLRVVLDYSYWDYDYDYWGQGTQVTVSS | low polyreactivity
36 | QVQLVESGGGLVQAGGSLRLSCAASGFTFGWYAMGWDIQAPGKERELLATISWSGSSTYYADSVKGLFTISRDNAKNTVYLQMNSLKPEDTAVYYCNAVYGGFVVLRYDYWGQGTQVTVSS | high polyreactivity
37 | QVQLVESGGGLVQAGGSLRLSCAASGFTFGWYAMGWYRQAPGKEREFVAAISRSGGSTYYADSVKGRFTISRDNAKNTVYLQMNSLKPEDTAVYYCAAYIIGDTHAEYDYWGQGTQVTVSS | high polyreactivity
38 | QVQLVESGGGLVQAGGSLRLSCAASGFTFGWYTMGWYRQAPGKERELDAAISLNGGSTYYADSVKGRFTISRDNAKNTVYLQMTSLKPEDTAVYYCAIRYRWPYYPYVYWGQGTQVTVSS | low polyreactivity
39 | QVQLVESGGGLVQAGGSLRLSCAASGFTFGYNAMGWYRQAPGKERELVAAISSSGGSTYYADSVKGRFTISRDNAKNTVYLQMNSLKPEDTAVYYCAKRTPRKWGQGTQVTVSS | high polyreactivity
40 | QVQLVESGGGLVQAGGSLRLSCAASGFTFGYNAMGWYRQAPGKERELVAAITSGGSTNYADSVKGRFTISRDNAKNTVYLQMNSLKPEDTAVYYCAVDPVRGRDYSWMDYWGQGTQVTVSS | low polyreactivity
41 | QVQLVESGGGLVQAGGSLRLSCAASGFTFGYNDMGWYRQATGKVRELVAGIRSGDDTNYADSVKGRFTISRDNAKNTVYLQMNSLKPEDTAVYYCAVGYGDYLYYDYDYWGQGTQVTVSS | low polyreactivity
42 | QVQLVESGGGLVQAGGSLRLSCAASGFTFGYNTMGWYRQAPGNERELGAAISWRGGSTFYADSVKGRFTISRDNAKNTVYLQMNSLKPEDTAVYYCNVLRLDQRYPSLRDDWGQGTQVTVSS | high polyreactivity
43 | QVQLVESGGGLVQAGGSLRLSCAASGFTFGYYAMGWYRQAPGKERELVAAINWSGVNTNYADSVKGRFTISRDNAKNTVYLQMNSLKPEDTAVYYCAADAGYDGYGYWGQGTQVTVSS | low polyreactivity
